Laboratory results: the nanobody polyreactivity screen of Harvey et al. (2022)

experiment: yeast display, Sf9 membrane polyspecificity reagent, FACS + sequencing; frameworks hold sequencing errors
Method in brief: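 A synthetic nanobody library was expressed on Saccharomyces cerevisiae BJ5465 by galactose induction for 36–48 hours. The library was stained for 1 hour at 4 °C with 10% biotinylated, detergent-solubilized Sf9 membrane reagent and enriched with streptavidin microbeads before FACS. Low and high (top ~1%) gates were set on anti-HA fluorescence for expression and streptavidin fluorescence for reagent binding, and each polyreactivity label reflects the gate of origin.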

Sequence | polyreactivity (PSR sort gate)
QVQLVESGGGLVQAGGSLRLSCAASGSIFKWYAMGWSRQAPGKERELVAAITNGGGSTYYADSVKGRFTISRDNAKNTVYLQMNSLKAEDTAVYYCAKDGHSYYPWVYDYWGQGTQVTVSS | low polyreactivity
QVQLVESGGGLVQAGGSLRLSCAASGSTFYYYTMGWYRQAPGKERELVDISWDGDSTYSADSVKGRFTISRDNAKNTVYLQMNSLKPEDTAVYYCAAADYYLPDDVSDYVDANFDYWGQGTQVTVSS | low polyreactivity
QVQLVESGGGLDQAGASLRLSCPASGRTFNANVMGWYRQAPGKERELVAAISTGGSTNYADSVKGRFTISRDNAKNTVYLQMNSLKPEDTAVYYCAAAIRVPQGGYYYWGQGTQVTVSS | low polyreactivity
QVQLVESGGGLVQAGGSLRLSCAASGSTFDYYDMGWYRQAPGKERELVATITSGGSTNYADSVKGRFTISRDNAKNTVYLQMNSLKPEDTAVYYCAADIGGDGEGYDYWGQGTQVTVSS | low polyreactivity
QVQLVESGGGLVQAGGSLRLSCAASGRTFIPYAMGWYRQAPGKERELVATIRRGGSTYYADSVKGRFTISRDNAKNTVYLQMYSLKPEDTAVYYCAATRYSFGPRRVDYWGQGTQVTVSS | high polyreactivity
QVQLVESGGGLVQAGGSLRLSCAASGRTFPTNAMGWYRQAPGKERELVARISTRGGSTYYADSVKGRFTISRDNAKNTVYLQMNSLKPEDTAVYYCARRYAVSNQASYYWGQGTQVTVSS | high polyreactivity
HVQLVESGGGLVQAGGSLRLSCAASGNTFKYYAMGWYRQAPGKERELVAAISYSGGSTYYADSVKGRFTISRDNAKNTVYLQMNSLKPEDTAVYYCAADLDSERYYWGQGTQVTVSS | low polyreactivity
QVQLVESGGGLVQAGGSLRLSCAASGRTFVPYAMGWYRQAPGKERELVAAISSGGDTNYADSVKGRFTISRDNAKNTVYLQMNSLKPEDTAVYYCAVGGAGSDDYLGQGTQVTVSS | low polyreactivity
QVQLVESGGGLVQAGGSLRLSCAASGFTFNEYAMGWYRQAPGKERELVAAITWGGASTYYADSVKGRFTISRDNAKNTVYLQMNSLKPEDTAVYYCVFVYVYDYYYWGQGTQVTVSS | high polyreactivity
QVQLVESGGGLVQAGGSLRLSCAASGSIFRHNAMGWYRQAPGKERELVAAITSRGGSTYYADSVKGRFTISRDNAKNTVYLQMNSLKPEDTAVYYFAADYSSLSWGYDYWGQGTQVTVSS | high polyreactivity
QVQLVESGGGLVQAGGSLRLSCAATGSIFVPNTMGWYRQAPGKERELVADINSDTGRTYYADSVKGRFTISRDNAKNTVYLQMNSLKPEDTAVYYCAAEWYSFWSSVEYDYWGQGTQVTVSS | low polyreactivity
QVQLVESGGGLVQAGGSLRLSCAASGSIFRLYAKGSYRQAPGKERELVARITTGGSTNYADSVKGRFTISRDNANNTVYLQMNSLKPEDTAVYYSWGVPRRYYYWGQGTQVTVSS | high polyreactivity
QVQLVESGGGLVQAGGSLRLSCAASGSTFLDNAMGWYRQAPGKETELVAAITQSGSSTYYADSVKGRFTISRDNAKNTVYLQMNSLKPEDTAVYYCAADVPNISFDYWGQGTQVTVSS | low polyreactivity
QVQHVESGGGLVQAGGSLRLSCAASGYTFRYYAMGWYRQAPGKERELVARINRSGGSTYYADSVKGRFTISRDYAKYTVYLQMNSLKPEDTAVYYCNRDYGWHYSYDYWGQGTQVTVSS | high polyreactivity
QVQLVESGGGLVQAGGSLRLSSAASGSTFPVYALGWYRQAPGKERELVAAITRTGARTYYADSVKGRFTISRDNAKNTVYLQMNSLTPEDTAVYYCAARGAGGILGRYGYWGQGTKVTVSS | high polyreactivity
QVQLVESGGGLVQAGGSLRLSCAASGRTSFGYAMGWYRQAPGKERELVAVISIGGTTYYADSVKGRFTISRDNAKNTVYLQMNSLKPEDTAVYYCAKDAETYYWGSYKSLYDYWGQGTQVTVSS | low polyreactivity
QVQLVESGGGLVHAGGTLRLSCAASGGIFYHYTMGWYRQAPGKERELVASIRVSGGRTYNADSVTGRFTISRDNAKNTVYLQMNSLKPQDSAVYFCNARGSWYQPTYDYWGQGTQVTVSS | high polyreactivity
QVQLVESGGGLVQAGGSLRLSCAATGSTFGPYVMGWYRQAPGKERELVAVISGGSTDYADSVKGRFTISRDNAKNTVYLQMNTLKPEDTAVYYCNAVLYVQDRLTRVDYDYWGQGTQVTVSS | high polyreactivity
QVQLVESGGGLVQAGGSLRLSCAASGYIFTYYAMGWYRQAPGKERELVAAISTSGTSTYYADSVKGRFTISRDNAKNTVYLQMNSLKPEDTAVYYCAKRSGARHRLMDYWGQGTQVTVSS | low polyreactivity
QVQLVESGGGLVQAGGSLRLSCAASGSTIDGYAMGWYRQAPGKEREFVAAISFSSASTYYADSVKGRFTISRDNAKNTVYLQMNSLKPEDTAVYYCNADFFDSGGSIEYDSWGQGSQVTVSS | low polyreactivity
QVQLVESGGGLVQAGGSLRLSCAASGRIFDGNAMGWYRQAPWKERELVAAINRSGGRTYYADSVKGRFTISRDNAKNTVYLQMNSLKPEDTAVYYCATPYAGGTPADPGYDYWGQGTQVTVSS | high polyreactivity

Sequence | polyreactivity (PSR sort gate)
QVQLVESGGGLVQAGGSLRLSCAASGSPFFPYAMGGYRQAPGKERELVAGISSDGGTSYADSVKGRFTISRDNAKNTVYLQMNSLKPEDTAVYYCAKETIGQDPVSGAWARHEYDYWGQGTQVTVSS | low polyreactivity
QVQLVESGGGLVQAGGSLRLSCAASGRTFKRFAMGWYRQAPGKERELVAAITWSGGNTYYADSVKGRFTISRDNAKNTVYLQMNSLKPEDTAVYYCAAKGAGRRYDSWGQGTQVTVSS | high polyreactivity
QVQLVESGGGLVQAGGSLRLICAASGSIFTKYAMVWYRQAPGKERELVAAITWSGGRTYYADSVKGRYTISRDNAKNTVYLQMNSLKPEDTAVYYCAAELFRQGYYYWGQGTQVTVSS | high polyreactivity
QVQLVESGGGLVQAGGSLRLSCAASGRTFGVYAMGSYRQAPGKEREFVATIRTTGSTNYADSVKGRFTISRDNAKNTVYLQMNSLKTEDTAVYYCAARQRQSKYYPYTTFTYDYWGQGTQVTVSS | high polyreactivity
QVQLVESCGGLVQEGGSLRLSCAASGRIFVVSAMGRYRQAPGKERELVAAISKRGGSTYYADSVKGRFTISRDNAKKTVYLQMNSLKPEDTAVYYCAKSRLVRGRSSYDYWGHGTQVTVSS | high polyreactivity
QDQLVESGGGLVQAGGSLRLSCAASGSTFVVNAMGWYRQAPGKERELVAAISSSGSSTYADSVKGRFTISRDNEKNTVYLQMNCLKPEDTAVYYCHKTTLLTVEYDYWGQGTQVSVSS | low polyreactivity
QVQLVESGAGLVQAGGSLRLSCAASGSTSTLNAMGWYRQAPGTERELVAAISRSGTSTYYADSVKGRFTISRDNAKNTVYLQMNSLKPEDTAVYYCAAYSYGPPYYYWGQGTQVTVSS | high polyreactivity
QVQLVDSGGGLVQAGGSLRLRCAASGSTFRRYAMGWYRQAPGKERELVAAISNRDGSTYYADSVKGRFTISRDNAKNTVYLQMNSLKADDTAVYYCNAYGYGDYSFLKYRFEYDYWGQGTQVTVSS | low polyreactivity
QVQLVESGGGLVQAGGSLRLSCAASGSTFTKYAMGWYRKAPGKERELVAAITYSGGRTYYADSVKGRFTISRDNAKNTVYLQMNSLKPEDTAVYYCAAATYAGKPMEYWGQGTQVTVSS | high polyreactivity
QVQLVESGGGLVQAGGSLRLSCAASGSTFKRYAMGWYRQAPGKERELVASISQRGGTTYYADSVKGRFTISRDNAKNTVYLQKNSLKPEDTAVYYCAKGFGWTRTIYDYWGQGTQVTVSS | high polyreactivity
QVQLVESGGGLVQAGGSLRLSCAASGSTSETYAMGWYRQAPGKERELVAAISGNGASTYYADSVKGRFTISRDNAKNTVYLQMNSLKPDDTAVYYCAAYFYYWGSTFVRYEYWGQGTQVTVSS | high polyreactivity
QFQLVESGGGLVQAGGSLRLSCAASGRIFSHYAMGCYRQAPGKERELVAAISSGGITYYADSVNGRFTISRDNAKNTVYLQRNSLKPEDTAVYYCAAVRRRGTTYDYWGQGTQVTVSS | high polyreactivity
QVQLVESGGGLVQAGGSLSLNCAASGFTFLQYPMGWYRQAPGKERELVATISSGGSTYYADSVKGRFTISPDNAKNTVYLQMNSLKPEDTAVYYCADTGYSSCTYYTHEYWGQGTQVTVSS | low polyreactivity
QVQLVESGGGLVQAGGSLRLSCAASGRILRYNAMGWYRQAPGKERELVASISGNGGSTYYADSVKGRFTISRDNAKNTVYVQMNSLKPEDTAVYYCNKYYYSSRGQKEYDYWGQGTQVTVSS | low polyreactivity
QVQLVESGGGLVQAGGSLRLSCAASGLIFISYAMGWYRQAPGKERELVAAITRSAGTTYYADSVKGRFTISRDNAKNTVYLQMNSLKPEDTAVYYCNALYPITPEDYWGQGTQVTVSS | low polyreactivity
QFQLVETGGGLDQAGGSLRLSCAASGTTFGVYAMGWYRQAPGKERELVAVITSRGGSTYYADSVKGRFTISRDNAKNTVYLQMNSLIPEDTAVYYCNVDSAYRRPPYDYWGQGTQVTVSS | high polyreactivity
QVQLVESGGGLVQAGGSLRLSCAASGSTIYINGMGWYRQAAGKERELVAVISKRGGTTYYADSVKGRFTISRDNAKNTVYLQMNSLKPEDTAVYYCADRPYYWGQGTQVTVSS | high polyreactivity
QVQLVESGGGLVQAGGSLRLSCAASGSTFGDYAMGWYRQAPGKERELVAAISVRGGSTYYADSVKGRFTISRDYAQNTVYLQMNSLKPEDTAVYYCNKDLYRYPGYDSWGQGTQVTVSS | high polyreactivity
QVQLVESGGCLVQAGGSLRLSCAASGRTFYRYAMGWSRQAPGKERELVATISSRGTSTYYADSVKGRFTISRDNAKNTVYLQMNSLKPEDTAVYYCAVRGYAAGRHGYAYWGQGTQVTVSS | high polyreactivity
QVQLVESGGGLVQAGGSLRVSCAASGRIFFPYDMGWYRQAPGKERELVAAITNSGGRTYYADSVKGRFTISRDKAKNTVYLQMNSLKPEDTAVYYCNADAYEFRWVKHYDYWGQGTQVTVSS | low polyreactivity
